In PMC11046469, “Leveraging a Phage-Encoded Noncanonical Amino Acid: A Novel Pathway to Potent and Selective Epigenetic Reader Protein Inhibitors” (ACS Central Science, 2024):
Where a SMILES comes first, the peptide text is derived from it. The star is where a group is joined. FITC = O=C1OC2(c3ccc(O)cc3Oc3cc(O)ccc32)c2ccc(NC(=S)*)cc21; Oxazole(5-CO) = O=C(c1cnco1)*; Ahx = NCCCCCC(=O)O

Legend:
[1] = test system: MOLM-13 cells; assay type: cell-based
Source text: (§1) For peptides developed for intracellular targets, a common concern is their cellular permeability to engage the targets. For the ENL YEATS domain that is a nuclear protein, its inhibitors will also need to translocate to the nucleus to exert their inhibition activities. […] We attached FITC to tENL-S1o to afford FITC-tENL-S1o that could be fluorescently imaged. […] Although results from this pilot study were very encouraging, the conjugated FITC could have assisted the cellular penetration process. A more accurate assay was needed for the use of unmodified peptides. […] There are three components required to gauge the peptide inhibitory potency for ENL expressed in cells through NanoBRET assays: (1) an ENL YEATS-NanoLuc luciferase fusion protein, (2) a NanoLuc luciferase substrate, and (3) a fluorescent tracer that binds specifically and reversibly to the reader channel of ENL YEATS. […] The cellular potency of peptides can be determined through the decrease in BRET as test peptides engage the ENL YEATS domain and displace the tracer. […]
(§2) Fluorescence microscopy study with FITC-6AHX-tENL-S1o: […]
(§3) Cell proliferation assays were performed in 96-well tissue culture plates (Corning). […] Cell numbers were determined every 3–4 days using the Countess automated cell counter (Invitrogen). […]

[2] = test system: MV4-11 cells; assay type: cell-based
Source text: as §1, §2, §3

[3] = target: T1, ENL YEATS (His-ENL) (Homo sapiens, UniProt Q03111); test: Fluorescence polarization binding of tracer to ENL YEATS
T1 construct: (aa 1−148) was cloned in pET19b; made in house; host or cells: E. coli BL21(DE3pLysS)
T1 sequence (Q03111 1-148): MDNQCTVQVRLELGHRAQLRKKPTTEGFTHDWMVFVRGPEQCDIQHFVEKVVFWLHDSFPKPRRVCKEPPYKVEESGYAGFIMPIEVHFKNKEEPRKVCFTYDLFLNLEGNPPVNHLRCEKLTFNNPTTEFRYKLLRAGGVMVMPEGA
Experimental: Meanwhile, we established a stable cell line for NanoLuc-ENL YEATS expression. The binding of SR-0813T to […] was also validated using a fluorescence polarization assay (Figure S16).
Fluorescence Polarization:
Tracer 1 (10 nM) and varying concentrations of His-ENL (14 nM to 7.2 µM) were mixed in a 200 µL of assay buffer (50 mM HEPES, 100 mM NaCl, 0.01% Tween20, pH: 7.4). The solutions were incubated in black 96-well plates and then measured fluorescence polarization in a microplate reader at Ex/Em = 530 nm/590 nm.
NanoBRET Assay to Validate ENL Inhibitors:
HEK293T/17 cells harboring pCDH-EF1-Nluc-ENL were cultivated in growth medium overnight at 37 °C and 5% CO2. […] Following a quick spin (100 rcf, 1 min), a plate reader equipped with the LUM 610 LP 450 module was used to measure the emissions at 450 nm (donor) […]
The final BRET ratio was calculated by dividing the acceptor emission (610 nm) by the donor emission (450 nm). The BRET ratio was calculated using the following equation: […]
MOLM-13 cells were incubated with test compound (tENL-S1f at a final concentration of 10 and 50 μM) and control (DMSO at a final concentration of 0.1%) for 24 hours. […] Quantitative real-time PCR (qRT-PCR) analyses were performed in triplicate using SYBR Select Master Mix (Applied Biosystems) […]
Gene expressions were calculated following normalization to B2M levels using the comparative C t (cycle threshold) method. […]

| Kd [3] [nM] | SMILES | cellular fluorescence (cell penetration) [1] | cellular fluorescence (cell penetration) [2] |
| --- | --- | --- | --- |
|  | CC(C)[C@H](NC(=O)CCCCCNC(=S)Nc1ccc2c(c1)C(=O)OC21c2ccc(O)cc2Oc2cc(O)ccc21)C(=O)N[C@@H](Cc1ccc(O)cc1)C(=O)N[C@@H](CS)C(=O)N[C@@H](Cc1ccc(O)cc1)C(=O)N[C@@H](CCCCNC(=O)c1cnco1)C(N)=O [FITC-tENL-S1o] ({FITC-Ahx}-VYCYK(Oxazole(5-CO))-NH2) | strong fluorescence within the cells | strong fluorescence within the cells |
| 1100 | O=C(CCC1=[N+]2C(=Cc3ccc(-c4ccc[nH]4)n3[B-]2(F)F)C=C1)NCCCC(=O)Nc1cccc(-c2cn3cc(C(=O)NC4CCC4)ccc3n2)c1 [SR-0813T] |  |  |
